Paper PMC9482650, “Quantitative fragmentomics allow affinity mapping of interactomes” (Nature Communications, 2022)
Positions count from the first letter of the chain named.

The binders below were run against T1, GRIP1_4, Q9Y3R0 (assay: holdup assay). Conditions: plain residues with an end cap or a label only (N-terminal biotin on a linker: ado-ado).
T1 sequence (Q9Y3R0 467-571, limits assumed, looked up): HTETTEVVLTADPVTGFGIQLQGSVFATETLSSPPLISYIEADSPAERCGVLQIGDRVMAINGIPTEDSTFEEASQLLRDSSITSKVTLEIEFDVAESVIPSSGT
Design: key: below the threshold = too weak to quantify, mostly under pKd 3.1 to 4

Binder | pKd
AEDEEIQTKM [UNC93A, Q86WB7] | below the threshold
LDKESFLTWL [YAP1, P46937] | below the threshold

Each binder was assayed against T2, SNTB1, Q13884 (assay: holdup assay). Conditions: plain residues with an end cap or a label only (N-terminal biotin on a linker: ado-ado).
T2 sequence (Q13884 107-205, limits assumed, looked up): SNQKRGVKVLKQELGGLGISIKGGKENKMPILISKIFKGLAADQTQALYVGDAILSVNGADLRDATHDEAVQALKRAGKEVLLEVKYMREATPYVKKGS
Design: key: below the threshold = too weak to quantify, mostly under pKd 3.1 to 4

Binder | pKd
AEDEEIQTKM [UNC93A, Q86WB7] | below the threshold
LDKESFLTWL [YAP1, P46937] | below the threshold

What follows are binders tested against T3, SNTG1, Q9NSN8 (assay: holdup assay). Conditions: plain residues with an end cap or a label only (N-terminal biotin on a linker: ado-ado).
T3 sequence (Q9NSN8 52-150, limits assumed, looked up): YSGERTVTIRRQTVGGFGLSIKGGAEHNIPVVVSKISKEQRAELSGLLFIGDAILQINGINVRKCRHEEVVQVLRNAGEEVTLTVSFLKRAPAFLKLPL
Design: key: below the threshold = too weak to quantify, mostly under pKd 3.1 to 4

Binder | pKd
AEDEEIQTKM [UNC93A, Q86WB7] | below the threshold
LDKESFLTWL [YAP1, P46937] | below the threshold

These binders were tested against T4, MPDZ_5, O75970 (assay: holdup assay). Conditions: plain residues with an end cap or a label only (N-terminal biotin on a linker: ado-ado).
T4 sequence (O75970 695-796, limits assumed, looked up): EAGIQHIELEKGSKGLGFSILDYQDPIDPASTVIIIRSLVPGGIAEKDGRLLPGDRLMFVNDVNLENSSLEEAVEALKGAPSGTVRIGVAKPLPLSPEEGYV
Design: key: below the threshold = too weak to quantify, mostly under pKd 3.1 to 4

Binder | pKd
AEDEEIQTKM [UNC93A, Q86WB7] | below the threshold
LDKESFLTWL [YAP1, P46937] | below the threshold

These binders were tested against Inadl_5, Q8NI35 (assay: holdup assay). Conditions: plain residues with an end cap or a label only (N-terminal biotin on a linker: ado-ado).
Design: key: below the threshold = too weak to quantify, mostly under pKd 3.1 to 4

Inadl_5, Q8NI35, sequence (Q8NI35 673-780): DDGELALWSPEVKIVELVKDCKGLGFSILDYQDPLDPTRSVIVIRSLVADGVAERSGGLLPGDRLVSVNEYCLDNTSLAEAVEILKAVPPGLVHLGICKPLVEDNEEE

Binder | pKd
AEDEEIQTKM [UNC93A, Q86WB7] | below the threshold
LDKESFLTWL [YAP1, P46937] | below the threshold

What follows are binders tested against T5, LIN7C, Q9NUP9 (assay: holdup assay). Conditions: plain residues with an end cap or a label only (N-terminal biotin on a linker: ado-ado).
T5 sequence (Q9NUP9 88-185, limits assumed, looked up): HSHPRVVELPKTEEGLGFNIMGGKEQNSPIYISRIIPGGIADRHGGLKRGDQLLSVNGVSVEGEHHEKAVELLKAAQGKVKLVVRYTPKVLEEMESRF
Design: key: below the threshold = too weak to quantify, mostly under pKd 3.1 to 4

Binder | pKd
AEDEEIQTKM [UNC93A, Q86WB7] | below the threshold
LDKESFLTWL [YAP1, P46937] | below the threshold

The binders below were run against T6, SYNJ2BP, P57105 (assay: holdup assay). Conditions: plain residues with an end cap or a label only (N-terminal biotin on a linker: ado-ado).
T6 sequence (P57105 8-110, limits assumed, looked up): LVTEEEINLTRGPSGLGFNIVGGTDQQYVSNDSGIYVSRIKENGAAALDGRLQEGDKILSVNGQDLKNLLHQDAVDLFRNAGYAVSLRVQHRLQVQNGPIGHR
Design: key: below the threshold = too weak to quantify, mostly under pKd 3.1 to 4

Binder | pKd
AEDEEIQTKM [UNC93A, Q86WB7] | below the threshold
LDKESFLTWL [YAP1, P46937] | 4.47

Each binder was assayed against T7, RAPGEF6, Q8TEU7 (assay: holdup assay). Conditions: plain residues with an end cap or a label only (N-terminal biotin on a linker: ado-ado).
T7 sequence (Q8TEU7 525-625, limits assumed, looked up): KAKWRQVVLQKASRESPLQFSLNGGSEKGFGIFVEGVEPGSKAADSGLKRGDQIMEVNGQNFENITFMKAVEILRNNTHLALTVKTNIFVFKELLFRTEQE
Design: key: below the threshold = too weak to quantify, mostly under pKd 3.1 to 4

Binder | pKd
AEDEEIQTKM [UNC93A, Q86WB7] | below the threshold
LDKESFLTWL [YAP1, P46937] | below the threshold

What follows are binders tested against GORASP2, Q9H8Y8 (assay: holdup assay). Conditions: plain residues with an end cap or a label only (N-terminal biotin on a linker: ado-ado).
Design: key: below the threshold = too weak to quantify, mostly under pKd 3.1 to 4

Binder | pKd
AEDEEIQTKM [UNC93A, Q86WB7] | below the threshold
LDKESFLTWL [YAP1, P46937] | 4.84

Each binder was assayed against T8, PTPN13_1, Q12923 (assay: holdup assay). Conditions: plain residues with an end cap or a label only (N-terminal biotin on a linker: ado-ado).
T8 sequence (Q12923 1088-1188, limits assumed, looked up): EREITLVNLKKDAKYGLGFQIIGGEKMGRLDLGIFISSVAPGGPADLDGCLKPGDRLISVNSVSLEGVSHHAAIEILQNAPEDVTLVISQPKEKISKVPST
Design: key: below the threshold = too weak to quantify, mostly under pKd 3.1 to 4

Binder | pKd
AEDEEIQTKM [UNC93A, Q86WB7] | below the threshold
LDKESFLTWL [YAP1, P46937] | below the threshold

These binders were tested against LNX1_3, Q8TBB1 (assay: holdup assay). Conditions: plain residues with an end cap or a label only (N-terminal biotin on a linker: ado-ado).
Design: key: below the threshold = too weak to quantify, mostly under pKd 3.1 to 4

LNX1_3, Q8TBB1, sequence (Q8TBB1 500-596): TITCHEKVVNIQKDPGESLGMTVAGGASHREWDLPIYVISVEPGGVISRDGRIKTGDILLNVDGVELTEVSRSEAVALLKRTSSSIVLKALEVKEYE

Binder | pKd
AEDEEIQTKM [UNC93A, Q86WB7] | below the threshold
LDKESFLTWL [YAP1, P46937] | below the threshold

Each binder was assayed against MAGI2_5, Q86UL8 (assay: holdup assay). Conditions: plain residues with an end cap or a label only (N-terminal biotin on a linker: ado-ado).
Design: key: below the threshold = too weak to quantify, mostly under pKd 3.1 to 4

MAGI2_5, Q86UL8, sequence (Q86UL8 915-1017): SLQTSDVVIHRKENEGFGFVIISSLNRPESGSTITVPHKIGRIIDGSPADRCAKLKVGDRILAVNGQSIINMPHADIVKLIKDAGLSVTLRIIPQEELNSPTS

Binder | pKd
AEDEEIQTKM [UNC93A, Q86WB7] | below the threshold
LDKESFLTWL [YAP1, P46937] | 4.18

What follows are binders tested against FRMPD2_2, Q68DX3 (assay: holdup assay). Conditions: plain residues with an end cap or a label only (N-terminal biotin on a linker: ado-ado).
Design: key: below the threshold = too weak to quantify, mostly under pKd 3.1 to 4

FRMPD2_2, Q68DX3, sequence (Q68DX3 944-1038): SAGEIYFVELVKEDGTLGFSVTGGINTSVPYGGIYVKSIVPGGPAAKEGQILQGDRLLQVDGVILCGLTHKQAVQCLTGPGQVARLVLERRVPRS

Binder | pKd
AEDEEIQTKM [UNC93A, Q86WB7] | below the threshold
LDKESFLTWL [YAP1, P46937] | 4.27

What follows are binders tested against T9, NHERF3_3, Q5T2W1 (assay: holdup assay). Conditions: plain residues with an end cap or a label only (N-terminal biotin on a linker: ado-ado).
T9 sequence (Q5T2W1 238-333, limits assumed, looked up): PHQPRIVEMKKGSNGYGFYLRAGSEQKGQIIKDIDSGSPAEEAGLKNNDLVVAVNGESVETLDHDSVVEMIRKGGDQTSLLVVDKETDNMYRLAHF
Design: key: below the threshold = too weak to quantify, mostly under pKd 3.1 to 4

Binder | pKd
AEDEEIQTKM [UNC93A, Q86WB7] | 4.16
LDKESFLTWL [YAP1, P46937] | 4.15

These binders were tested against GRID2IP_1, A4D2P6 (assay: holdup assay). Conditions: plain residues with an end cap or a label only (N-terminal biotin on a linker: ado-ado).
Design: key: below the threshold = too weak to quantify, mostly under pKd 3.1 to 4

GRID2IP_1, A4D2P6, sequence (A4D2P6 1-87): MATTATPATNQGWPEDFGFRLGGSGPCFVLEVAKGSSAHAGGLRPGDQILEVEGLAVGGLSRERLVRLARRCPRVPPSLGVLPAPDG

Binder | pKd
AEDEEIQTKM [UNC93A, Q86WB7] | below the threshold
LDKESFLTWL [YAP1, P46937] | below the threshold

The binders below were run against T10, DFNB31_3, Q9P202 (assay: holdup assay). Conditions: plain residues with an end cap or a label only (N-terminal biotin on a linker: ado-ado).
T10 sequence (Q9P202 811-907, limits assumed, looked up): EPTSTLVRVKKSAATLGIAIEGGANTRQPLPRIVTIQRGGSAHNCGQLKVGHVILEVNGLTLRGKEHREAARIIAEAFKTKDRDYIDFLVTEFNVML
Design: key: below the threshold = too weak to quantify, mostly under pKd 3.1 to 4

Binder | pKd
AEDEEIQTKM [UNC93A, Q86WB7] | 3.88
LDKESFLTWL [YAP1, P46937] | 5.37

What follows are binders tested against FRMPD3, Q5JV73 (assay: holdup assay). Conditions: plain residues with an end cap or a label only (N-terminal biotin on a linker: ado-ado).
Design: key: below the threshold = too weak to quantify, mostly under pKd 3.1 to 4

FRMPD3, Q5JV73, sequence (Q5JV73 12-100): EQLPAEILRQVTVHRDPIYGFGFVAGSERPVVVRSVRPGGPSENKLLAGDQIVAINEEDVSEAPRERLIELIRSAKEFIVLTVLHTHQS

Binder | pKd
AEDEEIQTKM [UNC93A, Q86WB7] | below the threshold
LDKESFLTWL [YAP1, P46937] | 4.4

The binders below were run against TJP1_3, Q07157 (assay: holdup assay). Conditions: plain residues with an end cap or a label only (N-terminal biotin on a linker: ado-ado).
Design: key: below the threshold = too weak to quantify, mostly under pKd 3.1 to 4

TJP1_3, Q07157, sequence (Q07157 416-512): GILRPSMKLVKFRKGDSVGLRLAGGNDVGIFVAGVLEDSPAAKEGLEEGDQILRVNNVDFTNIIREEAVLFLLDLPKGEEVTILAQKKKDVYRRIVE

Binder | pKd
AEDEEIQTKM [UNC93A, Q86WB7] | below the threshold
LDKESFLTWL [YAP1, P46937] | below the threshold

Each binder was assayed against T11, LIN7A, O14910 (assay: holdup assay). Conditions: plain residues with an end cap or a label only (N-terminal biotin on a linker: ado-ado).
T11 sequence (O14910 103-200, limits assumed, looked up): T5 sequence (Q9NUP9 88-185, limits assumed, looked up) with E13D, I20V, I40V, D42E, Q77K, G78D, K79S, S96A
Design: key: below the threshold = too weak to quantify, mostly under pKd 3.1 to 4

Binder | pKd
AEDEEIQTKM [UNC93A, Q86WB7] | below the threshold
LDKESFLTWL [YAP1, P46937] | below the threshold

Each binder was assayed against T12, GRIP1_7, Q9Y3R0 (assay: holdup assay). Conditions: plain residues with an end cap or a label only (N-terminal biotin on a linker: ado-ado).
T12 sequence (Q9Y3R0 999-1096, limits assumed, looked up): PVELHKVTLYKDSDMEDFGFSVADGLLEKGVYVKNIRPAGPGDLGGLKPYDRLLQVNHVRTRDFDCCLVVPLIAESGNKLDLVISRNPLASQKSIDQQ
Design: key: below the threshold = too weak to quantify, mostly under pKd 3.1 to 4

Binder | pKd
AEDEEIQTKM [UNC93A, Q86WB7] | below the threshold
LDKESFLTWL [YAP1, P46937] | below the threshold

What follows are binders tested against PICK1, Q9NRD5 (assay: holdup assay). Conditions: plain residues with an end cap or a label only (N-terminal biotin on a linker: ado-ado).
Design: key: below the threshold = too weak to quantify, mostly under pKd 3.1 to 4

PICK1, Q9NRD5, sequence (Q9NRD5 17-115): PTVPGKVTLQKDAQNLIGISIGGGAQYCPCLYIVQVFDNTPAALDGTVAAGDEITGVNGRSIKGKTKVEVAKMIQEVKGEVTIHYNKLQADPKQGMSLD

Binder | pKd
AEDEEIQTKM [UNC93A, Q86WB7] | 4.11
LDKESFLTWL [YAP1, P46937] | below the threshold

These binders were tested against MAST2, Q6P0Q8 (assay: holdup assay). Conditions: plain residues with an end cap or a label only (N-terminal biotin on a linker: ado-ado).
Design: key: below the threshold = too weak to quantify, mostly under pKd 3.1 to 4

MAST2, Q6P0Q8, sequence (Q6P0Q8 1099-1202): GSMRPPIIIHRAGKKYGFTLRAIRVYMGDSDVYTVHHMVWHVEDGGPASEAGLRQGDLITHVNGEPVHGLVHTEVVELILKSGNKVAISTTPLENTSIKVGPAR

Binder | pKd
AEDEEIQTKM [UNC93A, Q86WB7] | 5.38
LDKESFLTWL [YAP1, P46937] | 5.6

What follows are binders tested against T13, PDZD2_2, O15018 (assay: holdup assay). Conditions: plain residues with an end cap or a label only (N-terminal biotin on a linker: ado-ado).
T13 sequence (O15018 329-429, limits assumed, looked up): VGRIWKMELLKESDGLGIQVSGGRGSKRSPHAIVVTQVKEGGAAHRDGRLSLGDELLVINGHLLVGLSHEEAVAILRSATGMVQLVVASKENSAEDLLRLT
Design: key: below the threshold = too weak to quantify, mostly under pKd 3.1 to 4

Binder | pKd
AEDEEIQTKM [UNC93A, Q86WB7] | below the threshold
LDKESFLTWL [YAP1, P46937] | 5.88

The binders below were run against AHNAK1, Q09666 (assay: holdup assay). Conditions: plain residues with an end cap or a label only (N-terminal biotin on a linker: ado-ado).
Design: key: below the threshold = too weak to quantify, mostly under pKd 3.1 to 4

AHNAK1, Q09666, sequence (Q09666 4-100): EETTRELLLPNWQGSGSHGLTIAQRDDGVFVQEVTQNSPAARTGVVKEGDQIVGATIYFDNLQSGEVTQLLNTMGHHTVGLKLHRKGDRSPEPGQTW

Binder | pKd
AEDEEIQTKM [UNC93A, Q86WB7] | below the threshold
LDKESFLTWL [YAP1, P46937] | below the threshold
